In patent US20170122964:

System: nucleosome on the remodeling DNA template with Atto 647N labeled histone H2B

Question: How did the “FRET signal (nucleosome sliding assay)” value turn out when ACF remodeling complex was run?
Answer: The value was “Nucleosome on the remodeling DNA template shows FRET signal, which is reduced over time by the remodeling complex”.
